Values of other authors in article PMC6021539.

Molecular target: Adrenomedullin (Homo sapiens) (UniProt P35318)

Kd: 190 nM
Substance: CXCR7 (from UniProt P25106)
